T1: extracellular domain of human CD79b (human, UniProt P40259 29-159)
T1 construct: also called huCD79becd; huCD79b-ecd
T1 sequence: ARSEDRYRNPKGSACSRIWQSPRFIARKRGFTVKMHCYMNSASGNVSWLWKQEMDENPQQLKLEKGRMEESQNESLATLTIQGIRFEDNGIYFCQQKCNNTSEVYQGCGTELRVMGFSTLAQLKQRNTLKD

T2: human CD79b on the cell surface (human, UniProt P40259 29-229)
T2 construct: In the Scatchard analysis the BJAB line also stably expressed cynomolgus CD79b; also called PRO36249; endogenous human CD79b on DoHH-2, BJAB and BJAB-luciferase cells
T2 sequence: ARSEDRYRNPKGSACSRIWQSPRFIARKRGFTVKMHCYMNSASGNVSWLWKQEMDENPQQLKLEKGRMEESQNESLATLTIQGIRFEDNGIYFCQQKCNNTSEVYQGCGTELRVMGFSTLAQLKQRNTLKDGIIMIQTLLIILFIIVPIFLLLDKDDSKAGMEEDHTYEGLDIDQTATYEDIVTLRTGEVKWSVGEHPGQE

B1: huMA79b graft variant SEQ ID NO: 64 (Fab, name in Kabat numbering, V domains shown)
VH: EVQLVESGGGLVQPGGSLRLSCAASGYPFTSYWIQWVRQAPGKGLEWVGEILPGGGDTNYNEIFKGRFTISADTSKNTAYLQMNSLRAEDTAVYYCTRRVPVYFDYWGQGTLVTVSS
VL: DIQMTQSPSSLSASVGDRVTITCKASQSVDYDGDSFLNWYQQKPGKAPKLLIYAASNLESGVPSRFSGSGSGTDFTLTISSLQPEDFATYYCQQSNEDPLTFGQGTKVEIKR
notes: Fab on phage; rest as huMA79b graft
B2: huMA79b graft variant SEQ ID NO: 84 (Fab, name in Kabat numbering, V domains shown)
VH: B1 VH with P28N, F29V, T30S, I34L, Q35S
VL: B1 VL
notes: as for B1
B3: huMA79b graft variant SEQ ID NO: 86 (Fab, name in Kabat numbering, V domains shown)
VH: B1 VH with Y27F, T30N, S31R, Q35N
VL: B1 VL
notes: as for B1
B4: huMA79b graft variant SEQ ID NO: 78 (Fab, name in Kabat numbering, V domains shown)
VH: B1 VH with T30S, S31G, Q35E
VL: B1 VL
notes: as for B1
B5: huMA79b graft variant SEQ ID NO: 101 (Fab, name in Kabat numbering, V domains shown)
VH: B1 VH with P28T, T30S, Q35E, Y103R
VL: B1 VL
notes: as for B1
B6: huMA79b graft variant SEQ ID NO: 70 (Fab, name in Kabat numbering, V domains shown)
VH: B1 VH with P28T, Q35E
VL: B1 VL
notes: as for B1
B7: huMA79b graft variant SEQ ID NO: 100 (Fab, name in Kabat numbering, V domains shown)
VH: B1 VH with P28T, T30S, Q35E, Y103R, F104L
VL: B1 VL
notes: as for B1
B8: huMA79b graft variant SEQ ID NO: 77 (Fab, name in Kabat numbering, V domains shown)
VH: B1 VH with S31R, Q35E
VL: B1 VL
notes: as for B1
B9: huMA79b graft variant SEQ ID NO: 74 (Fab, name in Kabat numbering, V domains shown)
VH: B1 VH with P28S, T30R, S31R, Q35N
VL: B1 VL
notes: as for B1
B10: huMA79b graft variant SEQ ID NO: 79 (Fab, name in Kabat numbering, V domains shown)
VH: B1 VH with T30R, Q35S
VL: B1 VL
notes: as for B1
B11: huMA79b graft variant SEQ ID NO: 105 (Fab, name in Kabat numbering, V domains shown)
VH: B1 VH with P28T, T30S, Q35E, V100R, Y103C, F104L
VL: B1 VL
notes: as for B1
B12: huMA79b graft variant SEQ ID NO: 85 (Fab, name in Kabat numbering, V domains shown)
VH: B1 VH with Y27F, Q35S
VL: B1 VL
notes: as for B1
B13: huMA79b graft variant SEQ ID NO: 76 (Fab, name in Kabat numbering, V domains shown)
VH: B1 VH with P28S, T30P, I34L
VL: B1 VL
notes: as for B1
B14: huMA79b graft variant SEQ ID NO: 98 (Fab, name in Kabat numbering, V domains shown)
VH: B1 VH with P28T, T30S, Q35E, D105S
VL: B1 VL
notes: as for B1
B15: huMA79b graft variant SEQ ID NO: 95 (Fab, name in Kabat numbering, V domains shown)
VH: B1 VH with P28T, T30S, Q35E, V102I, Y103K, F104L
VL: B1 VL
notes: as for B1
B16: huMA79b graft variant SEQ ID NO: 102 (Fab, name in Kabat numbering, V domains shown)
VH: B1 VH with P28T, T30S, Q35E, Y103F, F104L
VL: B1 VL
notes: as for B1
B17: huMA79b graft variant SEQ ID NO: 66 (Fab, name in Kabat numbering, V domains shown)
VH: B1 VH with F29V, T30G, S31R, Q35S
VL: B1 VL
notes: as for B1
B18: huMA79b graft variant SEQ ID NO: 96 (Fab, name in Kabat numbering, V domains shown)
VH: B1 VH with P28T, T30S, Q35E, V102I, Y103R
VL: B1 VL
notes: as for B1
B19: huMA79b graft variant SEQ ID NO: 72 (Fab, name in Kabat numbering, V domains shown)
VH: B1 VH with P28T, T30R, S31R, Q35N
VL: B1 VL
notes: as for B1
B20: huMA79b graft variant SEQ ID NO: 80 (Fab, name in Kabat numbering, V domains shown)
VH: B1 VH with T30R, Q35N
VL: B1 VL
notes: as for B1
B21: huMA79b graft variant SEQ ID NO: 82 (Fab, name in Kabat numbering, V domains shown)
VH: B1 VH with T30N, S31R, Q35E
VL: B1 VL
notes: as for B1
B22: huMA79b graft variant SEQ ID NO: 89 (Fab, name in Kabat numbering, V domains shown)
VH: B1 VH with P28T, T30S, Q35E, Y103K, F104L
VL: B1 VL
notes: as for B1
B23: huMA79b graft variant SEQ ID NO: 83 (Fab, name in Kabat numbering, V domains shown)
VH: B1 VH with T30N, S31G, Q35N
VL: B1 VL
notes: as for B1
B24: huMA79b graft variant SEQ ID NO: 68 (Fab, name in Kabat numbering, V domains shown)
VH: B1 VH with P28G, Q35S
VL: B1 VL
notes: as for B1
B25: huMA79b graft variant SEQ ID NO: 69 (Fab, name in Kabat numbering, V domains shown)
VH: B1 VH with P28T, I34L, Q35S
VL: B1 VL
notes: as for B1
B26: huMA79b graft variant SEQ ID NO: 92 (Fab, name in Kabat numbering, V domains shown)
VH: B1 VH with P28T, T30S, Q35E, V102F, Y103C, F104L
VL: B1 VL
notes: as for B1
B27: huMA79b graft variant SEQ ID NO: 65 (Fab, name in Kabat numbering, V domains shown)
VH: B1 VH with T30R, S31R, Q35E
VL: B1 VL
notes: as for B1
B28: huMA79b graft variant SEQ ID NO: 73 (Fab, name in Kabat numbering, V domains shown)
VH: B1 VH with P28S, T30R, Q35N
VL: B1 VL
notes: as for B1
B29: huMA79b graft variant SEQ ID NO: 81 (Fab, name in Kabat numbering, V domains shown)
VH: B1 VH with T30R, S31G, Q35E
VL: B1 VL
notes: as for B1
B30: huMA79b graft variant SEQ ID NO: 99 (Fab, name in Kabat numbering, V domains shown)
VH: B1 VH with P28T, T30S, Q35E, Y103V, F104L
VL: B1 VL
notes: as for B1
B31: huMA79b graft variant SEQ ID NO: 75 (Fab, name in Kabat numbering, V domains shown)
VH: B1 VH with P28S, T30R, S31R, Q35E
VL: B1 VL
notes: as for B1
B32: huMA79b graft variant SEQ ID NO: 106 (Fab, name in Kabat numbering, V domains shown)
VH: B1 VH with P28T, T30S, Q35E, V100I
VL: B1 VL
notes: as for B1
B33: huMA79b graft variant SEQ ID NO: 71 (Fab, name in Kabat numbering, V domains shown)
VH: B1 VH with P28T, T30S, S31G, Q35N
VL: B1 VL
notes: as for B1
B34: thio huMA79b.v18-HC(A118C)-MC-MMAF (antibody, human IgG1, kappa)
heavy: not shown
light: DIQLTQSPSSLSASVGDRVTITCKASQSVDYDGDSFLNWYQQKPGKAPKLLIYAASNLESGVPSRFSGSGSGTDFTLTISSLQPEDFATYYCQQSNEDPLTFGQGTKVEIKRTVAAPSVFIFPPSDEQLKSGTASVVCLLNNFYPREAKVQWKVDNALQSGNSQESVTEQDSKDSTYSLSSTLTLSKADYEKHKVYACEVTHQGLSSPVTKSFNRGEC
modifications: MC-MMAF on the engineered Cys at EU position 118 (sequential 118; Kabat 114)
notes: Cysteine engineered antibody drug conjugate
B35: thio huMA79b.v18-HC(A118C)-MC-vcPAB-MMAE (antibody, human IgG1, kappa)
heavy: not shown
light: B34 light
modifications: MC-val-cit-PAB-MMAE on the engineered Cys at EU position 118 (sequential 118; Kabat 114)
notes: as for B34
B36: thio huMA79b.v18-HC(A118C)-BMPEO-DM1 (antibody, human IgG1, kappa)
heavy: not shown
light: B34 light
modifications: BMPEO-DM1 on the engineered Cys at EU position 118 (sequential 118; Kabat 114)
notes: Cysteine engineered antibody drug conjugate; also called huMA79b.v18-HC(A118C) thioMAb-BMPEO-DM1
B37: thio huMA79b.v28-HC(A118C)-MC-MMAF (antibody, human IgG1, kappa)
heavy: not shown
light: B34 light with D32E
modifications: MC-MMAF on the engineered Cys at EU position 118 (sequential 118; Kabat 114)
notes: as for B34
B38: thio huMA79b.v28-HC(A118C)-BMPEO-DM1 (antibody, human IgG1, kappa)
heavy: not shown
light: B34 light with D32E
modifications: BMPEO-DM1 on the engineered Cys at EU position 118 (sequential 118; Kabat 114)
notes: as for B34
B39: thio huMA79b.v28-HC(A118C)-MCvcPAB-MMAE (antibody, human IgG1, kappa)
heavy: not shown
light: B34 light with D32E
modifications: MC-val-cit-PAB-MMAE on the engineered Cys at EU position 118 (sequential 118; Kabat 114)
notes: Cysteine engineered antibody drug conjugate; also called thio huMA79b.v28-HC(A118C)-MC-val-cit-PAB-MMAE

Consider 39 molecules from patent USRE48558 (Genentech, dated 2021).

Changes are numbered by the printed parent chain. In names and notes the source's numbering stands.

For the first experiment, the target named is T1, extracellular domain of human CD79b. The experiment can be described thus: phage selection, Fab on phage, plate-bound huCD79becd.
For the molecule B1, the binding result was “binds”.
With B2, the binding result is given as “binds”.
As to B3, the binding result is “binds”.
The same measure, in the same setting: in the case of B4 it was “binds”; in that of B5, “binds”.
Still for that read-out and setting: in the case of B6 it was “binds”.
Consider B7, for which the binding result was “binds”.
The same measure, in the same setting: then B8, with “binds”; and B9, with “binds”.
Same read-out and setting: in the case of B10 it was “binds”; in that of B11, “binds”; in that of B12, “binds”.
Regarding B13, the binding result is “binds”.
Same read-out and setting: in the case of B14 it was “binds”.
On the same count and under the same terms, then B15, with “binds”; and B16, with “binds”; and B17, with “binds”.
As to B18, the binding result is listed as “binds”.
With B19, the binding result was “binds”.
On the same count and under the same terms, in the case of B20 it was “binds”.
On the same count and under the same terms, then B21, with “binds”; and B22, with “binds”; and B23, with “binds”.
Consider B24, for which the binding result is listed as “binds”.
On the same count and under the same terms, then B25, with “binds”.
The same measure, in the same setting: in the case of B26 it was “binds”; in that of B27, “binds”.
For the molecule B28, the binding result is recorded as “binds”.
For B29, the binding result is listed as “binds”.
Consider B30, for which the binding result was “binds”.
On the same count and under the same terms, then B31, with “binds”.
B32: the binding result was “binds”.
For the molecule B33, the binding result was “binds”.

The next experiment deals with T2, human CD79b on the cell surface. The experiment can be described thus: FACS on BJAB-luciferase cells, PE anti-human IgG detection.
B34: the binding result is reported as “binds”.
In the case of B35, the binding result is “binds”.
As for B36, the binding result is recorded as “binds”.

The next experiment has the same target. The experiment can be described thus: FACS on BJAB-luciferase cells, PE anti-human detection.
Take B37: the binding result is “binds”.
The same measure, in the same setting: in the case of B38 it was “binds”; in that of B39, “binds”.
